Laboratory results: patent publication US20250092135A1 (NANJING LEADS BIOLABS, published 2025)

Biological target: T1, Rhesus monkey MUC16-His (rhesus monkey)
T1 construct: The entry includes the C-terminal 6xHis tag; also called membrane-proximal end of the extracellular region of the rhesus monkey MUC16 protein
T1 chain: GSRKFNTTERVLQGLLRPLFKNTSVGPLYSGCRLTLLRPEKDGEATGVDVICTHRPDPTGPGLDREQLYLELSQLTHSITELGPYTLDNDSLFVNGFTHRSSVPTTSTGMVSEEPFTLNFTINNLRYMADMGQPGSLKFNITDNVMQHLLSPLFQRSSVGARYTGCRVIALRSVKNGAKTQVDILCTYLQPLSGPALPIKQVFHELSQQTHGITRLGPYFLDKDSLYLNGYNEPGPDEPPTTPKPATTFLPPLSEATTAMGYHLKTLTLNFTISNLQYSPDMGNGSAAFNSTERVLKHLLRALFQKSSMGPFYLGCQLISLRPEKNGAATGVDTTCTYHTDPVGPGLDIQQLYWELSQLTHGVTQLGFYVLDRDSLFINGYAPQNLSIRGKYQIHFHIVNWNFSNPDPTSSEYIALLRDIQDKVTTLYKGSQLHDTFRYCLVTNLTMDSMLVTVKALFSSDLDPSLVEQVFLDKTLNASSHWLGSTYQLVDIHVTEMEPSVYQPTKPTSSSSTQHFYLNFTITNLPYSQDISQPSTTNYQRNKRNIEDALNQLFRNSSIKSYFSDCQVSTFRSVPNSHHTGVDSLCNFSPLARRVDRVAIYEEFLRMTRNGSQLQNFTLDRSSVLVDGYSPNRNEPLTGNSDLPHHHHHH
Test: BLI (ForteBio Octet RED96), antibody on AHC sensor, 1:1 model

Kd: 1.04 nM
koff: 0.000263 s⁻¹
kon: 254000 M⁻¹ s⁻¹
B1: humanized anti-MUC16 antibody Hu-L4H7 (antibody, human IgG1, kappa, L234A L235A, V domains shown)
VH: QVQLVQSGAEVKKPGASVKVSCKASGYTFTDYNIHWVRQAPGQGLEWMGYIYPYNGVSDYNQNFKSRVTMTTDTSTSTAYMELRSLRSDDTAVYYCARWDFGSGYYFDYWGQGTLVTVSS
VL: EIVLTQSPATLSLSPGERATLSCRASSSVIYMSWYQQKPGQAPRLLIYGTSTLASGIPARFSGSGSGTDFTLTISSLEPEDFAVYYCQQWSSNPFTFGQGTKLEIKR
notes: human IgG1 with L234A, L235A, D265A, P329A and kappa; Biotinylated in the CA125 ELISA; also called humanized MUC-16 antibody
